Measured values: US20240218055A1 (US Dept. of Health and Human Services, published 2024)
Where two headings read alike, the source gives them in different places.

Assays:
[1] = target: T1, LASV GP1 subunit protein (Lassa virus, UniProt P08669 59-259); experiment: BLI
T1 sequence: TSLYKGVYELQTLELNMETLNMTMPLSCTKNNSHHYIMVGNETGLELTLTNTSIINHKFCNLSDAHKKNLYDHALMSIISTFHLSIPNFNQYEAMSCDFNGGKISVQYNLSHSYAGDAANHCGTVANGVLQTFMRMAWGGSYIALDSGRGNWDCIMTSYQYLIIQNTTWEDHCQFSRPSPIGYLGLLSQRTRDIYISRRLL

[2] = target: bovine serum albumin (bovine, UniProt P02769 25-607); experiment: ELISA, plate coated with BSA
Chain of bovine serum albumin (P02769 25-607 limits assumed): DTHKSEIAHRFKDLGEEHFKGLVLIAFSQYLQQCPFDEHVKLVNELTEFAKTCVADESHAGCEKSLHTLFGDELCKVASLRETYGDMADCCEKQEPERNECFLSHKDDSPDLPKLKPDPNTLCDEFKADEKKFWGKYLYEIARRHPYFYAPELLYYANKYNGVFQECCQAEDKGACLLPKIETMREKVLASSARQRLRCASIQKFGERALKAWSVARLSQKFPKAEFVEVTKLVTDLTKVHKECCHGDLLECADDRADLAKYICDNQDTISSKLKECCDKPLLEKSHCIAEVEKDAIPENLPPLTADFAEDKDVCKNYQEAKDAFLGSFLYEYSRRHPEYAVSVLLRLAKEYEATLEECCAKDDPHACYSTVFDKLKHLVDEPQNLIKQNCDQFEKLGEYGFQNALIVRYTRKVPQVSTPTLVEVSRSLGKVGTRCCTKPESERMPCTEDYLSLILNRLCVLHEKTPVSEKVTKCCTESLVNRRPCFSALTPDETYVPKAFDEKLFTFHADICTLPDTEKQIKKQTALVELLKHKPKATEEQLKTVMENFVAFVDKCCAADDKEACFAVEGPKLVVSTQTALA

[3] = target: T2, LASV Josiah GPC on pseudotyped rVSV (Lassa virus (Josiah strain), UniProt P08669 1-491); experiment: cell-based or functional assay
T2 sequence: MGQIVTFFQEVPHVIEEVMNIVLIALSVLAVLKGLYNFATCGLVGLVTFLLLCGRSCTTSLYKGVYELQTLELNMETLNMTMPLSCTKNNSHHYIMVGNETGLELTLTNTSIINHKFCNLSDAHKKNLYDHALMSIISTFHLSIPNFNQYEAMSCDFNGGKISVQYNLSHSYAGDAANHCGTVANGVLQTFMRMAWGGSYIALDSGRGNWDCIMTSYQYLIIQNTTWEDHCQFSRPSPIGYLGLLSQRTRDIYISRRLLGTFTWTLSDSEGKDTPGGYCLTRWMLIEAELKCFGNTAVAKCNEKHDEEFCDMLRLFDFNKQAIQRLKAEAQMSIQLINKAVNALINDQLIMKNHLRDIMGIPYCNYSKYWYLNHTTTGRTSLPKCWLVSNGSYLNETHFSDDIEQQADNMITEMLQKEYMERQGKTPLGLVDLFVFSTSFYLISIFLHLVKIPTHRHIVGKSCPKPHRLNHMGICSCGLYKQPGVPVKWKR

[4] = target: LASV GP2 subunit protein (Lassa virus); experiment: BLI
[5] = target: T1, LASV GP1 subunit protein; experiment: BLI; remark: listed apart in the source

Row | Binder | Kd [1] | binding result [2] | neutralization of LASV pseudotyped Josiah virus [3] | binding result [1] | Kd [4] | koff [4] | kon [4] | IC50, neutralization of Josiah pseudovirus [3] | Kd [5] | kon [5] | koff [5]
1 | shark VNAR A1 (VNAR) VNAR: ARVDQTPQTITKETGESLTINCVPPDSNCALADTYWYRKKSGSTNEESISKGGRYVPTVNSGSKSFILRINDLRVADSGTYRCKVSCYAAAYYGQQLERLYDVYGGGTAVTVN | 18.6 nM | no binding (tested: 1 ug/ml (single concentration)) | < 50% |  |  |  |  |  |  |  | 
2 | shark VNAR C3 (VNAR) VNAR: ARVDQTPQTITAETGESLTINCVLRNSDCGLSDTYWFRMSPGSGSEERISIGGRYLETVNSVSKSFSLRINDLTVEDSGRYRCKTDVYRYVSGSGCLYSYFASGAGTVVTVN |  | no binding (tested: 1 ug/ml (single concentration)) | < 50% | no binding | 10.6 nM | 0.000265 s⁻¹ | 25100 M⁻¹ s⁻¹ |  |  |  | 
3 | bivalent single domain antibody D5 in IgG2a format (Fc fusion) chain 1: AWQLVESGGGSVQPGGSLTLTCQASKSTFSTSGMRWERQAQGKGVEFVADISSDSTRKWYSDSVKGRFTISRSNWWRTVTLQMNDLKPEDTARYYCKDLESHHLRGQGTQVTVSSAAAEPKIPQPQPKPQPQPQPQPKPQPKPEPECTCPKCP chain 2: AWQLVESGGGSVQPGGSLTLTCQASKSTFSTSGMRWERQAQGKGVEFVADISSDSTRKWYSDSVKGRFTISRSNWWRTVTLQMNDLKPEDTARYYCKDLESHHLRGQGTQVTVSSAAAEPKIPQPQPKPQPQPQPQPKPQPKPEPECTCPKCP |  |  |  |  |  |  |  | 12 µg/mL |  |  | 
4 | shark VNAR A10 (VNAR) ARVDQTPQTITKETGESLTITCILRDSQCALSPTYWYHKKSGSTKPERIYKGGRYVETVNSGSKSFSLRINDLTVEDSGTFFCKVSGWYAYSCRLEPDGYYDVYGGGTVVTVN | 22.7 nM | no binding (tested: 1 ug/ml (single concentration)) | < 50% |  |  |  |  |  |  |  | 
5 | camel VHH D5 (VHH) VHH: AWQLVESGGGSVQPGGSLTLTCQASKSTFSTSGMRWERQAQGKGVEFVADISSDSTRKWYSDSVKGRFTISRSNWWRTVTLQMNDLKPEDTARYYCKDLESHHLRGQGTQVTVSS | 20.8 nM |  | < 50% |  |  |  |  |  | 20.8 nM | 23400 M⁻¹ s⁻¹ | 
6 | shark VNAR B8 (VNAR) VNAR: ARVDQTPQTVTKETGESLTINCVLRDSNCALPSTYWYRKKSGSTNEENISKGGRYVETVNSGSKSFSLRINDLRPEDSGTYRCKVHGLPLDCIPARGLELNWREDVNGGGTAVTVN | 15.9 nM | no binding (tested: 1 ug/ml (single concentration)) | < 50% |  |  |  |  |  |  | 149000 M⁻¹ s⁻¹ | 0.00236 s⁻¹
7 | shark VNAR B10 (VNAR) VNAR: ARVDQTPQTITKETGESLTINCVLRDSNCPLSSTFWYRADAGSLNEENISKGGRYVETVNSGSKSFSLRINDLTTEDSGTYRCKVAGLPLDCIPARGLELNWREDVYGGGTAVTVN | 78.6 nM | no binding (tested: 1 ug/ml (single concentration)) | < 50% |  |  |  |  |  |  | 52700 M⁻¹ s⁻¹ | 0.00414 s⁻¹
